Numbering of substitutions follows the chain as printed.
T1: human IL-18BP (amino acids 31-194) (human, UniProt O95998 31-194, biotinylated on the AviTag (BirA ligase) where immobilized or used for staining)
T1 construct: Secreted decoy receptor; made in insect cells (gp67 signal peptide); also called hIL-18BP
T1 sequence: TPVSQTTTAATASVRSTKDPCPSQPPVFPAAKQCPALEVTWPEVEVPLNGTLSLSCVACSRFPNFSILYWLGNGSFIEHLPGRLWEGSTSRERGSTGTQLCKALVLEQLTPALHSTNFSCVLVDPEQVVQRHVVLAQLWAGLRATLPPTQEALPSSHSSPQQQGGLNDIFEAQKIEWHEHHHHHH

T2: mouse IL-18BP (amino acids 31-194) (mouse, UniProt Q9Z0M9 29-193, biotinylated on the AviTag (BirA ligase))
T2 construct: Secreted decoy receptor; made in Expi293 cells (H7 signal peptide); the stated range is the same as for the human protein; also called mIL-18BP
T2 sequence: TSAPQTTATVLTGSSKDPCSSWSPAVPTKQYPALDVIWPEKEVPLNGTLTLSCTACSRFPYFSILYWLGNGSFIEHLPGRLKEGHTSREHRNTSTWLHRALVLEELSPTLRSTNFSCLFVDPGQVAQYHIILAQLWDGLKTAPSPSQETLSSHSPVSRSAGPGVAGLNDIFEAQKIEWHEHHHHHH

T3: IL-18 receptor (IL-18R) on HEK-Blue IL-18 reporter cells (UniProt Q13478 19-541; O95256 20-599, limits assumed)
T3 sequence (looked up) 1: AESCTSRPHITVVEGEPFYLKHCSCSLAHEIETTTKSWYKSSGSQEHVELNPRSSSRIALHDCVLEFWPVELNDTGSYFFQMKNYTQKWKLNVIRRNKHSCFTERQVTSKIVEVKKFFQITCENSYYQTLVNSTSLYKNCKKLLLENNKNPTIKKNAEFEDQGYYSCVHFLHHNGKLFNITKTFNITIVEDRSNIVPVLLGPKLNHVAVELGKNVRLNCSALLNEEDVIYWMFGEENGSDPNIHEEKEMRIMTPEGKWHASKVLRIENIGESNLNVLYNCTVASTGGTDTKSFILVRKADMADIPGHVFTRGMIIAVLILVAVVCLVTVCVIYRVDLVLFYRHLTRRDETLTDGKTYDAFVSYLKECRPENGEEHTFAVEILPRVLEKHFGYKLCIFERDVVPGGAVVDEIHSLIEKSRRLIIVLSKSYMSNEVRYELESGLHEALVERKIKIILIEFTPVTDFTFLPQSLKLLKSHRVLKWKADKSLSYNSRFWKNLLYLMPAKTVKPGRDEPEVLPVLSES
T3 sequence (looked up) 2: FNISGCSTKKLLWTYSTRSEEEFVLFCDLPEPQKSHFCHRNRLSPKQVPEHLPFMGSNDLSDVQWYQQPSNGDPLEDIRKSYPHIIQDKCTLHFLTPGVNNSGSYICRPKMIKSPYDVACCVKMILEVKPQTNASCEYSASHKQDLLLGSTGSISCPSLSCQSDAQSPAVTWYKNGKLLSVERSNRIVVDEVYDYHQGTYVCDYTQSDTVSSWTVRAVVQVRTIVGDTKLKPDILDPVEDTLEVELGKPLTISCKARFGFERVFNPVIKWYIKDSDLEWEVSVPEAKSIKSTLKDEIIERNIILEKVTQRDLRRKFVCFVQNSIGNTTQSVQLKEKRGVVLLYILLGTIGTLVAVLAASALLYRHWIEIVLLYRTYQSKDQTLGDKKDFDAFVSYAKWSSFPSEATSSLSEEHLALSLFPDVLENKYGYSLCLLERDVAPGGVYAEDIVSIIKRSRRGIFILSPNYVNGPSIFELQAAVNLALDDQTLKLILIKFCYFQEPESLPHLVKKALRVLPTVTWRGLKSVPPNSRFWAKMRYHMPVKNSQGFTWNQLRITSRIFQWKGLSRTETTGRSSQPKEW

T4: mouse IL-18Rα ectodomain (amino acids 19-329) (mouse, UniProt Q61098 19-329, biotinylated on the AviTag (BirA ligase))
T4 construct: range 19-329; Secreted from Expi293 cells (H7 signal peptide); also called mIL-18Rα; Ra
T4 sequence: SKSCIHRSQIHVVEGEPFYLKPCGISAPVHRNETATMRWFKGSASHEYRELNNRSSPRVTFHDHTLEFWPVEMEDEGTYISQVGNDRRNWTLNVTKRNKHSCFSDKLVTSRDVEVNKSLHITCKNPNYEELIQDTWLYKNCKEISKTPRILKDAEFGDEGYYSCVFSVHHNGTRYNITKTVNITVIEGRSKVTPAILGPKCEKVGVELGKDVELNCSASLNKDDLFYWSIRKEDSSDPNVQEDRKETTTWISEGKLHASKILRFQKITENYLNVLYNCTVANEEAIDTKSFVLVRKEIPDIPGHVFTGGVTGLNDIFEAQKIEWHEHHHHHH

B1: hCS1 (ligand)
chain: YFGKLESKLSVIRNLNDQVLFIDQGNRPLFEDMTDSDCRDNAPRTIFIISTYKDSQPRGKAVTISVKCEKISTLSCENKIISFKEMNPPDNIKDTKSDIIFFQRDVPGHKHKMQFESSSYEGYFLACEKERDLFKLILKKEDELGDRSIMFTVQNED
notes: recombinant with C-terminal hexahistidine tag in SPR and cell assays
B2: hCS3 (ligand)
chain: B1 chain with Y1R
notes: as for B1
B3: 6-12 (ligand)
chain: B1 chain with T51K, K53S, Q56L, P57A, K60L, K110S, H111R
notes: recombinant with C-terminal hexahistidine tag in SPR and cell assays; also called h6-12; version 2.0 human DR-IL-18 variant
B4: 6-27 (ligand)
chain: B1 chain with T51K, K53S, Q56R, P57A, K60L, Q103A, D105S, K110G, H111R, M113T
notes: recombinant with C-terminal hexahistidine tag in SPR and cell assays; also called h6-27; version 2.0 human DR-IL-18 variant
B5: 6-31 (ligand)
chain: B1 chain with T51K, K53G, Q56G, P57A, K60L, Q103E, K110S, H111G, M113V
notes: recombinant with C-terminal hexahistidine tag in SPR and cell assays; also called h6-31; version 2.0 human DR-IL-18 variant
B6: mCS2 (ligand)
chain: HFGRLHCTTAVIRNINDQVLFVDKRQPVFEDMTDIDQSASEPQTRLIIYAYGDSRARGKAVTLSVKDSKMSTLSCKNKIISFEEMDPPENIDDIQSDLIFFQKRVPGHNKMEFESSLYEGHFLACQKEDDAFKLILKKKDENGDKSVMFTLTNLHQS
notes: recombinant with C-terminal hexahistidine tag in SPR; also called DR-IL-18 (mCS2); DR-18 variant mCS2
B7: hA8 (ligand)
chain: B1 chain with K8R, T51K, S55K, G59A, K60Q, V153I
notes: also called human DR-IL-18 variant A8
B8: hB9 (ligand)
chain: B1 chain with Y1R, L5H, K53R, Q103E, D105N, H111Y
B9: hH3 (ligand)
chain: B1 chain with Y1R, K8R
B10: mB1 (ligand)
chain: B6 chain with A50G, G52A, R55D, G58A, R104S, L151V
notes: recombinant with C-terminal hexahistidine tag in SPR
B11: mCS1 (ligand)
chain: B6 chain with H1N, A50G, G52A, A56V
notes: as for B10
B12: mC1 (ligand)
chain: B6 chain with H1N, G52V, S54R, A56L, R104K
notes: as for B10

Each binder was assayed against T1, human IL-18BP (amino acids 31-194) (assay: on-yeast isotherms; KD IL-18BP / KD IL-18Rα; on-yeast isotherms; ratio of two KDs).

In order of rising “KD ratio: IL-18BP/IL-18Rα” value:
1. B2  103
2. B1  300

These binders were tested against T1, human IL-18BP (amino acids 31-194) (assay: SPR; KD BP / KD Ra normalized to WT IL-18).

B3 and B4 cannot be ordered by “IL-18 BP:Ra Dissociation Constant Ratio” value: > 9.32e+06 for the first, > 5.86e+06 for the second.

First: B5
Second: B1
The “IL-18 BP:Ra Dissociation Constant Ratio” value of the first is higher: > 1.06e+06 for the first, 3020 for the second.

With B2 the “IL-18 BP:Ra Dissociation Constant Ratio” value was 4350.

The binders below were run against T2, mouse IL-18BP (amino acids 31-194) (assay: SPR; KD BP / KD Ra normalized to WT IL-18).

B6 was tested, and the “IL-18 BP:Ra Dissociation Constant Ratio” value was > 7.5e+07.

What follows are binders tested against T1, human IL-18BP (amino acids 31-194) (assay: on-yeast isotherms; KD IL-18BP / KD IL-18Rα (20 µM used for NBD)).

Going from B3 to B4, the “KD ratio: IL-18BP/IL-18Rα” value falls from 1200 to 480.

B5 and B7 cannot be ordered by “KD ratio: IL-18BP/IL-18Rα” value: 490 for the first, > 347 for the second.

B8 and B9 cannot be ordered by “KD ratio: IL-18BP/IL-18Rα” value: > 157 for the first, > 239 for the second.

What follows are binders tested against T3, IL-18 receptor (IL-18R) on HEK-Blue … (assay: cell-based or functional assay).

In order of falling “EC50 (read off the curve); HEK-Blue IL-18 SEAP reporter, OD 655 nM” value:
1. B5  ~4 nM
2. B4  ~1 nM
3. B3  ~0.6 nM

Each binder was assayed against T1, human IL-18BP (amino acids 31-194) (assay: SPR; KD IL-18BP / KD IL-18Rα; SPR; ratio of two KDs).
Procedure: (§1) Experiments were conducted using a Biacore™ T100 (Protein analysis interaction system) and carried out at 25° C. Biotinylated IL-18Rα or TL-18BP were immobilized onto a Biacore™ biotin capture chip (Series S CAP sensor chip, GE Healthcare) to yield an Rmax of ˜50 RU (IL-18Rα) or ˜10 RU (IL-18BP). Measurements were made with serial dilutions of the IL-18 variants in HEPES buffered Saline-P+ buffer (10 mM HEPES pH 7.4, 150 mM NaCl, 0.005% surfactant P20). The surface was regenerated by three 60-see injections of regeneration buffer (3/4 (v/v) 8M guanidine hydrochloride with 1/4 (v/v) 1M sodium hydroxide). Experiments were performed in multiple channels simultaneously for increased observations. All data were analyzed with the Biacore™ T100 evaluation software version 2.0 with a 1:1 Langmuir binding model.
To additionally characterize the receptor binding activities of the DR-IL-18 variants, the cytokines were expressed recombinantly and surface plasmon resonance for IL-18Rα and IL-18BP was performed (see FIG. 5B for representative traces).

In order of rising “KD ratio: IL-18BP/IL-18Rα” value:
1. B2  2.27
2. B1  2.41

Molecular target: T3, IL-18 receptor (IL-18R) on HEK-Blue …
Assay: cell-based or functional assay
Remark: another data set of the same source

With B1 the “EC50 (read off the curve); HEK-Blue IL-18 SEAP reporter, OD 655 nM” value was ~4 nM.

The binders below were run against T4, mouse IL-18Rα ectodomain (amino acids …) (assay: flow cytometry, mIL-18Rα titrated on yeast-displayed murine IL-18 variant (binding isotherm, %Max)).

In order of rising “EC50 (read off the curve)” value:
1. B11  ~10 nM
2. B6  ~10 nM
3. B10  ~20 nM

Each binder was assayed against T2, mouse IL-18BP (amino acids 31-194) (assay: SPR; KD IL-18BP / KD IL-18Rα; SPR; ratio of two KDs).
Procedure: By contrast, very little binding is observed with the same variants and mIL-18BP (right). (FIG. 11B) Representative surface plasmon resonance sensorgrams between immobilized biotinylated mIL-18BP and the murine DR-IL-18 variants.
as §1

In order of rising “KD ratio: IL-18BP/IL-18Rα” value:
1. B11  7040
2. B10  21000
3. B12  26300
4. B6  133000

These binders were tested against T2, mouse IL-18BP (amino acids 31-194) (assay: on-yeast isotherms; KD IL-18BP / KD IL-18Rα (10 µM used for NBD); on-yeast isotherms; 10 µM put in for NBD).

B10 and B12 cannot be ordered by “KD ratio: IL-18BP/IL-18Rα” value: > 559 for the first, > 233 for the second.

B11 and B6 cannot be ordered by “KD ratio: IL-18BP/IL-18Rα” value: > 935 for the first, > 885 for the second.

— US20250057918A1 (YALE UNIVERSITY, published 2025)
